# Measured values reported in the nanobody polyreactivity screen of Harvey et al. (2022).
# Assay: yeast display, Sf9 membrane polyspecificity reagent, FACS + sequencing; frameworks hold sequencing errors
# Method in brief: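 Polyreactivity labels are assigned by the sorting gate from which each nanobody was recovered. The gates were low and high (top ~1%), set on anti-HA fluorescence for expression and streptavidin fluorescence for reagent binding. Before sorting, galactose-induced (36–48 hours) yeast display cells were stained for 1 hour at 4 °C with 10% biotinylated, detergent-solubilized Sf9 membrane reagent.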
row,Sequence,polyreactivity (PSR sort gate)
1,QVQLVESGGGLVQAGGSLRLSCAASGSTFGVYAMGWYRQAPAKEMELVARITWSGGSTDYADSVKGRFTISRDNAKNTVYLQMNSLKPEDTAVYYCAARAWWDWYSPRWYYYWGQGTQVTVSS,high polyreactivity
2,QVQLVESGGGLVQAGGSLRLSCAASGSTFGVYAMGWYRQAPGKERELVAAINYSGRTYYADSVKGRFTISRDNAKNTVYLQMNSLKPEDTAVYYCAARIIVDDVGTKYYYWGQGTQVTVSS,high polyreactivity
3,QVQLVESGGGLVQAGGSLRLSCAASGSTFGVYAMGWYRQAPGKERELVAAISGSGGSTYYADSVKGRFTISRDNAKNTVYLQMNSLKPEDTAVYYCAAKVRHYYSASNYYYWGQGTQVTVSS,high polyreactivity
4,QVQLVESGGGLVQAGGSLRLSCAASGSTFGVYAMGWYRQAPGKERELVAAISYTGGSTYYADSVKGRFTISRDNAKNTVYLQMNSLKPEDTAVYYCATRSRDQYSVSYRLDYWGQGTQVTVSS,low polyreactivity
5,QVQLVESGGGLVQAGGSLRLSCAASGSTFGVYAMGWYRQAPGKERELVATITRSGGNTYYADSVKGRFTISRDNAKNTVYLQMNSLKPEDTAVYYCAARRLYGSQRGYWGQGTQVTVSS,high polyreactivity
6,QVQLVESGGGLVQAGGSLRLSCAASGSTFGVYARGWYRQAPGKERELVAAIRDRGGSTYYADSVKGRFTISRDNAKNTVYLQMNSLKPEDTAVYYCATRTWWEYYYWGQGTQVTVSS,high polyreactivity
7,QVQLVESGGGLVQAGGSLRLSCAASGSTFGVYARGWYRQAPGKERELVAAISSSTGSTYYADSVKGRFTISRDNEKNTVYLQMNSLKPEDTAVYYCAAAGYGKVRGDYWGQGTQVTVSS,low polyreactivity
8,QVQLVESGGGLVQAGGSLRLSCAASGSTFGWNAMGWYRKAPGKERELVAAISSYGGITYYADSVKGRFTISRDNEKNTVYLQMNSLKPEDTAVYYCAAERDDDWVNYWGQVTQVTVSS,low polyreactivity
9,QVQLVESGGGLVQAGGSLRLSCAASGSTFGWNAMGWYRQAPGKERDLVAAITGGGSTYYADSVKGRFTISRDNAKNTVYLQMNSLKPEDSAVYYCEGDYWGQGTQVTVSS,low polyreactivity
10,QVQLVESGGGLVQAGGSLRLSCAASGSTFGWNAMGWYRQAPGKERELVAAITADDDDTYYADSVKGRFTISRDNAKNTVYLQMNSLKPEDTAVYYCATEKWFWYGDWYDYWGQGTQVTLSS,high polyreactivity
11,QVQLVESGGGLVQAGGSLRLSCAASGSTFGWNAMGWYRQAPGKERELVAAITRGGRTTYADSVKGRFTISRDNAKNTVYLQMNSLKPEDTAVYYCAALHGRYPNRYDYWGQGTQVTVSS,low polyreactivity
12,QVQLVESGGGLVQAGGSLRLSCAASGSTFGWYAMGWYRKAPGKERELVAAISTTGGRTYYADSVKGRFTISRDNAKNTVYLQMNSLKPEDTAVYYCNARGRRYVYSYGYDYWGQGTQVTVSS,high polyreactivity
13,QVQLVESGGGLVQAGGSLRLSCAASGSTFGWYAMGWYRQAPGKERDFVASITSSTGSTYYADSVKGRFTISRDNAKNTVYLQMYSLKPEDTAVYYCAASYVYTFLSYLLEYDYWGQGTQVTVSS,high polyreactivity
14,QVQLVESGGGLVQAGGSLRLSCAASGSTFGWYAMGWYRQAPGKERELVAAITSGGGTYYADSVKGRFTISRDNAKNTVYLQMNSLKPEVTAVYYCAADFVYSGWAPYDFWVTSYDYWGQGTQVTVSS,low polyreactivity
15,QVQLVESGGGLVQAGGSLRLSCAASGSTFGWYAMGWYRQAPGKERELVASITSGGRTNYADSVKGRFTISRDNAKNTVYLQMNSLKTEDTAVYYCAKRVYGSNSLYDYWGQGTQVTVSS,low polyreactivity
16,QVQLVESGGGLVQAGGSLRLSCAASGSTFGWYVMGWYRQAPGKERELVAAITTGGSTNYADSVKGRFTISRDHAKNSVYLQMNSLKPEDTAVYYCGKAVTEVIYRGVTEGAVDYWGQGTQVTVSS,low polyreactivity

row,Sequence,polyreactivity (PSR sort gate)
1,QVQLVESGGGLVQAGGSLRLSCAASGSTFGYNAMGWYRQAPGKERELVAAISWSGGSTYYADSVKGRFTISRDNAKNTVYLQMNSLKPEDTAVYYCAALTHYGGYGYTYDYWGQGTQVTVSS,low polyreactivity
2,QVQLVESGGGLVQAGGSLRLSCAASGSTFGYNAMGWYRQAPGKERELVAAITWSGGSTYYADSVKGRFTISRDNAKNTFYFQMNSLKPEDTAVYYCAAEWGVGKSWLEYLLFYYWGQGTQVTVSS,low polyreactivity
3,QVQLVESGGGLVQAGGSLRLSCAASGSTFGYNAMGWYRQAPGKERELVAAITYRGSTYYADSVKGRFTISRDNAKNTVYLQMNSLKPEDTAVYYCATQGARYYHTYGYWGQGTQVTVSS,low polyreactivity
4,QVQLVESGGGLVQAGGSLRLSCAASGSTFGYNTMGWYREAPGKERELVAAITGTGRTNYADSVKGRFTISRDNAKNTVYLQMNSLKPEDTAVYYCNARQAGTRYKYGYYGRYYWGQGTQVTVSS,high polyreactivity
5,QVQLVESGGGLVQAGGSLRLSCAASGSTFGYYAMGWYRQAPGKEMELVAAITSGASTNYADSVKGRFTISRDNAKNTVYLQMNSLKPEDTAVYYCAADFLSPAYRPSWYRFDYWGQGTQVTVSS,low polyreactivity
6,QVQLVESGGGLVQAGGSLRLSCAASGSTFGYYAMGWYRQAPGKERELVAAIRSSGGGTYYADSVKGRFTISRDNAKNTVYLQMNSLKPEDTAVYYCATDAPILVNAEYDEWLEYDYWGQGTQVTVSS,low polyreactivity
7,QVQLVESGGGLVQAGGSLRLSCAASGSTFGYYAMGWYRQAPGKERELVAAITGRGGSTYYADSVKGRFTISRDNAKNTVYLQMNSLKPEDTAVYYCAVGKYRLYYSGAYGYWGQGTQVTVSS,high polyreactivity
8,QVQLVESGGGLVQAGGSLRLSCAASGSTFGYYAMGWYRQAPGKERELVAAITKRSGRTYYADSVKGRFTISRDNAKNTVYLQLNSLKPEDTAVYYCAARYTFDRWKFGYWGQGTQVTVSS,high polyreactivity
9,QVQLVESGGGLVQAGGSLRLSCAASGSTFGYYAMGWYRQAPGKERELVAGISSGGTTKYADSVKGRFTISRDNAKNTVYLQMNSLTPVDTAVYYCAARFRRTRVTYYYWGQGTQVTVSS,high polyreactivity
10,QVQLVESGGGLVQAGGSLRLSCAASGSTFGYYAMGWYRQAPGKERELVAVITRSGDRTYYADSVKGRFTISRDNAKNTVYLQMNSLKPEDTGVYYCAARATSAGGVAEYYWGQGTQVTVSS,high polyreactivity
11,QVQLVESGGGLVQAGGSLRLSCAASGSTFHIYAMGWYRQAPGKERELVAAINRSGGSTRYADSVKGRFTISRDNAKNTVYLQMNSLKPEDTAVYYCATKRSTGYYWGQGTQVTVSS,high polyreactivity
12,QVQLVESGGGLVQAGGSLRLSCAASGSTFHLNAMGWYRQAPGKERELVAAISWDGSSTSYADSVKGRFTISRDNANNTVYLQMNSLKPEDTAVYYCAADDTLDRVPTTFIDGSPGYGYWGQGTQVTVSS,low polyreactivity
13,QVQLVESGGGLVQAGGSLRLSCAASGSTFHLYAMGWYRQAPGKEREFVAAIRGRGGNTYADSVKGRFTISRDNAKNTVYLQMNSLKPEDTAFYYCAAPLLRDLRSPYSYNYWGQGTQVTVSS,low polyreactivity
14,QVQLVESGGGLVQAGGSLRLSCAASGSTFHRNAMGWYRQAPGKERELVAAISWRGGSTYYADSVKGRFTISRDNAKNNVYLLMNSLKPEDTAVYYCNAVERYWDYGYWGQGTQVTVSS,low polyreactivity
15,QVQLVESGGGLVQAGGSLRLSCAASGSTFHRYAMGWSRQAPGKERELVAAISLSGGRTYYADSVKGRFTISRDNAKNTVYLQMNSLKPEDSAVYYCNALVPSGNGDHDYWGQGTQVTVSS,high polyreactivity
